Values joined by “and” are separate entries in the source; they are usually repeats but may differ in a detail not shown here. Equal values may be shown once.
B1: human VANGL1, full-length (FL), purified (natural protein, UniProt Q8TAA9 1-524, looked up)
chain: MDTESTYSGYSYYSSHSKKSHRQGERTRERHKSPRNKDGRGSEKSVTIQPPTGEPLLGNDSTRTEEVQDDNWGETTTAITGTSEHSISQEDIARISKDMEDSVGLDCKRYLGLTVASFLGLLVFLTPIAFILLPPILWRDELEPCGTICEGLFISMAFKLLILLIGTWALFFRKRRADMPRVFVFRALLLVLIFLFVVSYWLFYGVRILDSRDRNYQGIVQYAVSLVDALLFIHYLAIVLLELRQLQPMFTLQVVRSTDGESRFYSLGHLSIQRAALVVLENYYKDFTIYNPNLLTASKFRAAKHMAGLKVYNVDGPSNNATGQSRAMIAAAARRRDSSHNELYYEEAEHERRVKKRKARLVVAVEEAFIHIQRLQAEEQQKAPGEVMDPREAAQAIFPSMARALQKYLRITRQQNYHSMESILQHLAFCITNGMTPKAFLERYLSAGPTLQYDKDRWLSTQWRLVSDEAVTNGLRDGIVFVLKCLDFSLVVNVKKIPFIILSEEFIDPKSHKFVLRLQSETSV

Legend:
AUC = biological target: the molecule itself; assay: AUC
[1] = biological target: T1, human VANGL2, full-length (FL), purified (human, UniProt Q9ULK5 1-521); assay: cryo-EM structure
T1 sequence (looked up): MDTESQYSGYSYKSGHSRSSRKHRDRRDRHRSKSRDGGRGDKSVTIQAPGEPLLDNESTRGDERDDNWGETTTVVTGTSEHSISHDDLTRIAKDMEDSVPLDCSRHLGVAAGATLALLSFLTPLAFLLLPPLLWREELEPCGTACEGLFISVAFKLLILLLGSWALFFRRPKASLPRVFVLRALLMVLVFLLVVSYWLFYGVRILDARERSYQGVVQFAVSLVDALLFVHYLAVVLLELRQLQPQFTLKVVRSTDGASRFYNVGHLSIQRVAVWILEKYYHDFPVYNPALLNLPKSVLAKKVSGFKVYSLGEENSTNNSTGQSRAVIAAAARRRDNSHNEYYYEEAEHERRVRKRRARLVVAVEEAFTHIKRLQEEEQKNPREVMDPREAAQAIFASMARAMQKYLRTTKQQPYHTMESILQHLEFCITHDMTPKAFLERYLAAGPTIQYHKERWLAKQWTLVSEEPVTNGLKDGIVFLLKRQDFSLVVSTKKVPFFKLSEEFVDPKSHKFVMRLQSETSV

Row | Binder | stoichiometry N (AUC) | binding result [1]
1 | B1 | ~6 and 3 | –
2 | NPGMNRFLGLYGEDDDSWCSSSSSSSDSEEEGYFLGQPIPQPRPQR (peptide, UniProt Q96MT3 745-790, looked up) [PK1^745-790 peptide, purified from E. coli] | – | binds
